Test results: patent publication US9981059B2, “Sugar chain-polypeptide complex” (Glytech, Inc., priority 2013, dated 2018)

Key:
[1] = Steel ball loading test of hydrogel property; assay type: physicochemical; parameters: key to position of the steel ball / hydrogel state: The state of the steel ball staying near the hydrogel surface was set as ◯; sinking after loading and staying internally was set as Δ; sinking to the bottom of the Durham's tube was set as X; * was added to those where the hydrogel was not uniform and clouding or insoluble matter (precipitate) was observed
Procedure: Ten mg of the sugar chain-polypeptide complex or 10 mg of the control polypeptide were dissolved in 500 μL of ultrapure water to prepare 2 wt. % polypeptide solutions. […] In doing so, citrate-phosphate buffer (pH 2.0 and 3.5), phosphate buffer (pH 7.4), and phosphate-sodium hydroxide buffer (pH 11.5) were employed as the buffer. The surface of the hydrogel inside the Durham's tube was horizontally placed, left still for 20 minutes under room temperature conditions, and a steel ball (diameter 1.56 mm, weight 16 mg, FUNABE SEIKO Co., Ltd.) was loaded on the hydrogel. After 10 minutes, the position of the steel ball was observed by visual confirmation.
The position of the steel ball inside the Durham's tube was evaluated in 3 grades. The state of the steel ball staying near the hydrogel surface was set as ◯, sinking after loading and staying internally was set as Δ, and sinking to the bottom of the Durham's tube was set as X. In addition, * was added to those where the hydrogel was not uniform and clouding or insoluble matter (precipitate) was observed. A hydrogel where the steel ball stays around the surface (◯) and no clouding or insoluble matter is seen (no *) was thought to be a gel that is transparent and uniform.

[2] = Steel ball loading test of hydrogels comprising rat blood plasma (utility as hemostatic matrix); assay type: physicochemical; settings: polypeptide 0.5 wt. %
Procedure: Aqueous polypeptide solutions were prepared with a method similar to Example 1. Blood was collected from 7 weeks-old Crlj:WI rats with heparin sodium injection (Ajinomoto), and blood plasma was obtained from the supernatant after centrifugation treatment. The aqueous polypeptide solution, blood plasma, and PBS were added to a Durham's tube, and hydrogels was prepared so that the plasma concentration was 5-50% and the polypeptide concentration was 0.5 wt. %. Subsequently, these were left for 20 minutes at room temperature condition, and then steel ball loading tests were carried out with a method similar to Example 1.

[3] = Kinetic viscosity measurement with rheometer; assay type: physicochemical; settings: 0.5 wt. % hydrogel, pH 7, 25 degrees
Procedure: A rheometer (MCR302, Anton Paar GmbH) equipped with a stainless steel parallel plate having a diameter of 25 mm with 0.3 mm gap height was employed for kinetic viscosity measurement. […] Five millimolars of aqueous sodium hydroxide solution was added to these aqueous polypeptide solutions in order to adjust the pH to prepare 0.5 wt. % hydrogels at pH 7. Subsequently, these hydrogels were quickly transferred to a rheometer set at 25 degrees, and phase angle (tan δ) was monitored over a time course. (frequency=1 Hz, distortion=10%)

[4] = target: T1, Bovine Serum Albumin (BSA) (Bos taurus, UniProt P02769); experiment: Controlled release capability for acidic protein encapsulated in hydrogel
T1 construct: purchased Life Technologies A13100
T1 sequence (P02769 25-607): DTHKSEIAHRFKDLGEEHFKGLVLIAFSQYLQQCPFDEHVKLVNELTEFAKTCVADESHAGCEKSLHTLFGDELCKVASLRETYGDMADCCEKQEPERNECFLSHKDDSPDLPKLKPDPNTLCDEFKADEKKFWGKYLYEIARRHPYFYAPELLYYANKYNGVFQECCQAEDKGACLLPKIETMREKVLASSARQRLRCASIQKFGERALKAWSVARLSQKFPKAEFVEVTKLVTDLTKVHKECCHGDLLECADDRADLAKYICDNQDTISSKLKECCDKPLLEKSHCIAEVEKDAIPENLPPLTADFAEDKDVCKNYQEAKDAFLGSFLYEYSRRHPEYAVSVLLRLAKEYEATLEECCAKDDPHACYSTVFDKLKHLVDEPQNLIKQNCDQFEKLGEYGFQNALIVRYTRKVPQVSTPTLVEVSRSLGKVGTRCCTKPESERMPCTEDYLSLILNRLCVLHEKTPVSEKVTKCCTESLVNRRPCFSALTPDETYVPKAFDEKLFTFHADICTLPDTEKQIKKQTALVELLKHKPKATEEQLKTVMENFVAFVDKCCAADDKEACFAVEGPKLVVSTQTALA
Procedure: A phosphate buffer (pH 7.4) was employed as the buffer. Moreover, Bovine Serum Albumin (BSA) fluorescently labeled with Alexa Fluor™ 488 (A13100, Life Technologies) was employed as the acidic protein to be encapsulated into the hydrogel.
The components were added to the tube so that the buffer salt concentration is 0.15 M, the BSA concentration is 5 μM, and the polypeptide concentration is 0.25-1 wt. %, and mixed by vortex. The mixture was added to the Multiwell Insert System (351130, BD) at 50 μL each, and left overnight in an incubator at 37 degrees (CO2 incubator for cell culture, MCO-18AIC, SANYO) with shading to prepare BSA-encapsulating hydrogels. In the incubator at 37 degrees, the Insert System was immersed in a 96-well flat bottom plate (353928, BD) with a buffer identical to the hydrogel added at 225 μL each, and the plate was shaken with a plate shaker (MICRO PLATE MIXER NS-P, AS ONE Corporation, rotation speed: ⅕ of scale) to initiate the test (0 hours). Subsequently, the fluorescence amount that leaked out over time on the flat bottom plate side was measured with a fluorescence plate reader (SpectraMax M3, Molecular Devices, LLC.). A standard curve was created with the identical fluorescently-labeled BSA, and the protein concentration was calculated from the amount of fluorescent dye that leaked out. A solution of only BSA added to the buffer (W/O SAP) was employed as the control.

[5] = Circular dichroism (CD) measurement of β sheet structure; assay type: physicochemical
Procedure: In general, the characteristics of the wavelengths observed when a substance has a β sheet structure are a positive absorption at around 197 nm and a negative absorption at around 216 nm. For this reason, focus was placed on the size of these wavelengths in the present invention, and the influence of pH on the β sheet structure was investigated.
One to ten millimolars of aqueous sodium hydroxide solutions were added to each of these aqueous polypeptide solutions to adjust the pH, and 100 mM aqueous polypeptide solutions at having pH 2 or pH 7 were created. These aqueous solutions were transferred to quartz cells having an optical path length of 0.1 cm. The CD spectrum was then measured with a spectrum polarimeter (J-805, Jasco) at wavelengths of 185-260 nm for ellipticity (millidegree). The mean residue ellipticity θ was calculated with the following formula: [θ]=(θobs/10·l·c)/r
wherein θobs represents the ellipticity measured in millidegree, l represents the cell length (cm), c represents the concentration (M), and r represents the number of amino acid residues.

[6] = hydrogel concentration 0.5 wt. %, pH 3.5
[7] = hydrogel concentration 0.5 wt. %, pH 7.4

Substance	position of the steel ball / hydrogel state [1, 6]	position of the steel ball / hydrogel state [1, 7]	hydrogel formed (in words) ([1]; 0.5 wt. %, pH 3.5 and pH 7.4)	also measured
2C(Maltose)-(RADA)4 [Compound 8]	◯*	X*	–	hydrogel formed (in words) ([1]; Example 4, 0.5 wt. %, pH 7.4): did not form hydrogels
2C(Maltotriose)-(RADA)4 [Compound 9]	◯	◯	transparent and uniform hydrogels	–
3C(Maltose)-(RADA)4 [Compound 12]	◯	◯	transparent and uniform hydrogels	–
(RADA)4 [Compound 1]	X*	X*	–	hydrogel formed (in words) ([1]; 1 wt. %, pH 2.0): transparent and uniform hydrogel; hydrogel formed (in words) ([1]; 1 wt. %, pH 3.5 or higher): ununiform hydrogel with clouding; position of the steel ball / hydrogel state ([1]; peptide concentration 1 wt. %, pH 2.0): ◯; position of the steel ball / hydrogel state ([1]; peptide concentration 1 wt. %, pH 3.5): Δ*; position of the steel ball / hydrogel state ([1]; peptide concentration 1 wt. %, pH 7.4): X*; position of the steel ball / hydrogel state ([1]; peptide concentration 1 wt. %, pH 11.5): X*; position of the steel ball / hydrogel state ([2]; plasma concentration 5%): X*; hydrogel formed in presence of blood plasma (in words) ([2]; plasma concentration 5-50%): clouded and insoluble matters were observed at all plasma concentrations; position of the steel ball / hydrogel state ([2]; plasma concentration 10%): X*; position of the steel ball / hydrogel state ([2]; plasma concentration 25%): Δ*; position of the steel ball / hydrogel state ([2]; plasma concentration 50%): Δ*; rigidity of hydrogel formed [3]: a fragile hydrogel is formed, or an ununiform hydrogel that is only partially rigid is formed; phase angle (tan δ) over a time course ([3]; frequency 1 Hz, distortion 10%): large phase angle; controlled release capability (BSA leakage speed vs solution without any polypeptide) ([4]; pH 7.4, polypeptide 0.5 wt. % or less): does not possess controlled release capability; leakage of BSA encapsulated in the hydrogel ([4]; phosphate buffer pH 7.4, 37 degrees, polypeptide 0.25-1 wt. %): leaked out in a short time; β sheet structure formation ([5]; neutral pH): formed almost no β sheet structure; molar ellipticity (CD) ([5]; pH 2, 100 mM aqueous polypeptide solution): high molar ellipticity; molar ellipticity (CD) ([5]; pH 7, 100 mM aqueous polypeptide solution): significantly reduced
(RATARAEA)2 (RATARAEARATARAEA) [Compound 16]	X*	X*	ununiform and clouded hydro gel	–
C(DiGlcNAc)-(RADA)4 [Compound 2]	–	–	–	controlled release capability (BSA leakage speed vs solution without any polypeptide) ([4]; pH 7.4, concentration as low as 0.25 wt. %): showing controlled release capability
C(Maltose)-(RADA)4-C(Maltose) [Compound 10]	◯*	X*	–	hydrogel formed (in words) ([1]; Example 4, 0.5 wt. %, pH 7.4): did not form hydrogels
C(Maltotriose)-(RADA)4-C(Maltotriose) [Compound 11]	◯	◯	transparent and uniform hydrogels	–
C(PEG2000)-(RADA)4 [Compound 14]	X	X	uniform hydrogels were not formed	–
